The results in this text go back to article PMC5104429 (2016).

B1: Flag-tagged wild type LRRK2 (leucine-rich repeat kinase 2) [human] / Full length V5-tagged FADD [not stated] (parent complex)
chain 1: MASGSCQGCEEDEETLKKLIVRLNNVQEGKQIETLVQILEDLLVFTYSERASKLFQGKNIHVPLLIVLDSYMRVASVQQVGWSLLCKLIEVCPGTMQSLMGPQDVGNDWEVLGVHQLILKMLTVHNASVNLSVIGLKTLDLLLTSGKITLLILDEESDIFMLIFDAMHSFPANDEVQKLGCKALHVLFERVSEEQLTEFVENKDYMILLSALTNFKDEEEIVLHVLHCLHSLAIPCNNVEVLMSGNVRCYNIVVEAMKAFPMSERIQEVSCCLLHRLTLGNFFNILVLNEVHEFVVKAVQQYPENAALQISALSCLALLTETIFLNQDLEEKNENQENDDEGEEDKLFWLEACYKALTWHRKNKHVQEAACWALNNLLMYQNSLHEKIGDEDGHFPAHREVMLSMLMHSSSKEVFQASANALSTLLEQNVNFRKILLSKGIHLNVLELMQKHIHSPEVAESGCKMLNHLFEGSNTSLDIMAAVVPKILTVMKRHETSLPVQLEALRAILHFIVPGMPEESREDTEFHHKLNMVKKQCFKNDIHKLVLAALNRFIGNPGIQKCGLKVISSIVHFPDALEMLSLEGAMDSVLHTLQMYPDDQEIQCLGLSLIGYLITKKNVFIGTGHLLAKILVSSLYRFKDVAEIQTKGFQTILAILKLSASFSKLLVHHSFDLVIFHQMSSNIMEQKDQQFLNLCCKCFAKVAMDDYLKNVMLERACDQNNSIMVECLLLLGADANQAKEGSSLICQVCEKESSPKLVELLLNSGSREQDVRKALTISIGKGDSQIISLLLRRLALDVANNSICLGGFCIGKVEPSWLGPLFPDKTSNLRKQTNIASTLARMVIRYQMKSAVEEGTASGSDGNFSEDVLSKFDEWTFIPDSSMDSVFAQSDDLDSEGSEGSFLVKKKSNSISVGEFYRDAVLQRCSPNLQRHSNSLGPIFDHEDLLKRKRKILSSDDSLRSSKLQSHMRHSDSISSLASEREYITSLDLSANELRDIDALSQKCCISVHLEHLEKLELHQNALTSFPQQLCETLKSLTHLDLHSNKFTSFPSYLLKMSCIANLDVSRNDIGPSVVLDPTVKCPTLKQFNLSYNQLSFVPENLTDVVEKLEQLILEGNKISGICSPLRLKELKILNLSKNHISSLSENFLEACPKVESFSARMNFLAAMPFLPPSMTILKLSQNKFSCIPEAILNLPHLRSLDMSSNDIQYLPGPAHWKSLNLRELLFSHNQISILDLSEKAYLWSRVEKLHLSHNKLKEIPPEIGCLENLTSLDVSYNLELRSFPNEMGKLSKIWDLPLDELHLNFDFKHIGCKAKDIIRFLQQRLKKAVPYNRMKLMIVGNTGSGKTTLLQQLMKTKKSDLGMQSATVGIDVKDWPIQIRDKRKRDLVLNVWDFAGREEFYSTHPHFMTQRALYLAVYDLSKGQAEVDAMKPWLFNIKARASSSPVILVGTHLDVSDEKQRKACMSKITKELLNKRGFPAIRDYHFVNATEESDALAKLRKTIINESLNFKIRDQLVVGQLIPDCYVELEKIILSERKNVPIEFPVIDRKRLLQLVRENQLQLDENELPHAVHFLNESGVLLHFQDPALQLSDLYFVEPKWLCKIMAQILTVKVEGCPKHPKGIISRRDVEKFLSKKRKFPKNYMSQYFKLLEKFQIALPIGEEYLLVPSSLSDHRPVIELPHCENSEIIIRLYEMPYFPMGFWSRLINRLLEISPYMLSGRERALRPNRMYWRQGIYLNWSPEAYCLVGSEVLDNHPESFLKITVPSCRKGCILLGQVVDHIDSLMEEWFPGLLEIDICGEGETLLKKWALYSFNDGEEHQKILLDDLMKKAEEGDLLVNPDQPRLTIPISQIAPDLILADLPRNIMLNNDELEFEQAPEFLLGDGSFGSVYRAAYEGEEVAVKIFNKHTSLRLLRQELVVLCHLHHPSLISLLAAGIRPRMLVMELASKGSLDRLLQQDKASLTRTLQHRIALHVADGLRYLHSAMIIYRDLKPHNVLLFTLYPNAAIIAKIADYGIAQYCCRMGIKTSEGTPGFRAPEVARGNVIYNQQADVYSFGLLLYDILTTGGRIVEGLKFPNEFDELEIQGKLPDPVKEYGCAPWPMVEKLIKQCLKENPQERPTSAQVFDILNSAELVCLTRRILLPKNVIVECMVATHHNSRNASIWLGCGHTDRGQLSFLDLNTEGYTSEEVADSRILCLALVHLPVEKESWIVSGTQSGTLLVINTEDGKKRHTLEKMTDSVTCLYCNSFSKQSKQKNFLLVGTADGKLAIFEDKTVKLKGAAPLKILNIGNVSTPLMCLSESTNSTERNVMWGGCGTKIFSFSNDFTIQKLIETRTSQLFSYAAFSDSNIITVVVDTALYIAKQNSPVVEVWDKKTEKLCGLIDCVHFLREVMVKENKESKHKMSYSGRVKTLCLQKNTALWIGTGGGHILLLDLSTRRLIRVIYNFCNSVRVMMTAQLGSLKNVMLVLGYNRKNTEGTQKQKEIQSCLTVWDINLPHEVQNLEKHIEVRKELAEKMRRTSVE
chain 2: MDPFLVLLHSVSSSLSSSELTELKFLCLGRVGKRKLERVQSGLDLFSMLLEQNDLEPGHTELLRELLASLRRHDLLRRVDDFEAGAAAGAAPGEEDLCAAFNVICDNVGKDWRRLARQLKVSDTKIDSIEDRYPRNLTERVRESLRIWKNTEKENATVAHLVGALRSCQMNLVADLVQEVQQARDLQNRSGAMSPMSWNSDASTSEAS

Variants of B1 are the subject of one experiment. As to the kind of experiment: ELISA (anti-Flag capture, anti-V5 detection); 15 μg of cell extract loaded in each well; parent: 0.61; read off a plot.
As to chain 1 I2020T, the response is roughly 0.77 anti-V5/Total LRRK2.
Regarding chain 1 T1410M, the response was roughly 1.7 anti-V5/Total LRRK2.
Same read-out and setting: for chain 1 K544E the value was roughly 1.2 anti-V5/Total LRRK2; for chain 1 G2019S, roughly 1.2 anti-V5/Total LRRK2; for chain 1 A211V, roughly 0.91 anti-V5/Total LRRK2.
Consider chain 1 R1441C, for which the response was roughly 0.75 anti-V5/Total LRRK2.

The next experiment covers variants of B1. As to the kind of experiment: co-immunoprecipitation (M2-Flag resin), quantified Western blot band intensity; HEK293T cells; Flag-LRRK2 and V5-FADD at a ratio of 4:1; three independent experiments; parent: 1; read off a plot.
As for chain 1 I2020T, the response was ~1.6 norm. to Flag IP.
On the same count and under the same terms, for chain 1 T1410M the value was ~2 norm. to Flag IP; for chain 1 K544E, ~1 norm. to Flag IP; for chain 1 G2019S, ~1.3 norm. to Flag IP.
The same measure, in the same setting: for chain 1 A211V the value was ~1.7 norm. to Flag IP; for chain 1 R1441C, ~1.1 norm. to Flag IP.
